One molecule from publication PMC4552549 can be followed below.

This experiment addresses TβRII (TGF-β1 receptor) on PBMC (human (endogenous in PBMC)) (UniProt P37173).
UniProt P37173, sequence (P37173 23-567): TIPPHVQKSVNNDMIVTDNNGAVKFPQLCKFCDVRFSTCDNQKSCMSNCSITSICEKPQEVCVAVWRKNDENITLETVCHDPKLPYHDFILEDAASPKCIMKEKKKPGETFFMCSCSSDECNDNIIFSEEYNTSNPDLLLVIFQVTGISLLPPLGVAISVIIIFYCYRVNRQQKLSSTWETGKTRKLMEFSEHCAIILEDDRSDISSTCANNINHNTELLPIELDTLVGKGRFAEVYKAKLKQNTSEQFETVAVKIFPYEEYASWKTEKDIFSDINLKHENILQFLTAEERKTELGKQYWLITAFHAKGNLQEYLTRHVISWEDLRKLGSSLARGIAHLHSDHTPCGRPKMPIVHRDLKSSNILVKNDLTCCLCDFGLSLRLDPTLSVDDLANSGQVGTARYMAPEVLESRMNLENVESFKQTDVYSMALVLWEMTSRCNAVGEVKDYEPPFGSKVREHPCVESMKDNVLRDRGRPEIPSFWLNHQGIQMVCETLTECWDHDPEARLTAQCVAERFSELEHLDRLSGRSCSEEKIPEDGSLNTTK

ACESPLKRQCGGGS [pm26TGF-β1 synthetic peptide]: the percentage of Tregs (CD4+CD25+Foxp3+, flow cytometry) in PBMC after the peptide at 1 μM, 10 μM and 100 μM (5.43%, 6.67% and 5.90%; untreated 4.94%) was 6.67%.
